Data published in article PMC7465815, “The CARF Protein MM_0565 Affects Transcription of the Casposon-Encoded cas1-solo Gene in Methanosarcina mazei Gö1” (Biomolecules, 2020).

Experiments:
[1] = target: T1, His6-MM_0565 (CARF-wHTH protein) (Methanosarcina mazei Gö1) (UniProt Q8PZC9); experiment: competition; settings: MST: 25 nM labelled protein in His-tag buffer (250 mM NaH2PO4, 1.5 M NaCl, pH 8) + 1 mg/mL BSA, 0.05% Tween20, DNA from annealing buffer (50 mM TES/KOH pH 7.6 …)
T1 sequence: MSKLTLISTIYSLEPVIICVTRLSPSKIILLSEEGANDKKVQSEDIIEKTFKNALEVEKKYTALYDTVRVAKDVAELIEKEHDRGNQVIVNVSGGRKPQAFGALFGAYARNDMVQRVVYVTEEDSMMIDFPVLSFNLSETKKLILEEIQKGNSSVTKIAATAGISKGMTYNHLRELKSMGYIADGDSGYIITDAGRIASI

[2] = target: T1, His6-MM_0565 (CARF-wHTH protein) (Methanosarcina mazei Gö1); experiment: EMSA; settings: MST: 25 nM labelled protein in His-tag buffer (250 mM NaH2PO4, 1.5 M NaCl, pH 8) + 1 mg/mL BSA, 0.05% Tween20, DNA from annealing buffer (50 mM TES/KOH pH 7.6 …)
[3] = target: T2, His6-MM_0565 (CARF-wHTH protein) (Methanosarcina mazei Gö1, UniProt Q8PZC9 1-200); experiment: MST; MST: 25 nM labelled protein in His-tag buffer (250 mM NaH2PO4, 1.5 M NaCl, pH 8) + 1 mg/mL BSA, 0.05% Tween20, DNA from annealing buffer (50 mM TES/KOH pH 7.6); settings: protein: recombinant, tags: N-terminal His6 (pET28a), chain copies: 2
T2 sequence: T1 sequence

[4] = target: the molecule itself; experiment: SEC; purified His6-MM_0565 on an ENrich SEC 650 column; 50 mM TES buffer pH 7.6, 300 mM KCl; 0.5 mL/min; calibrated with a gel-filtration mass standard
[5] = target: the molecule itself; experiment: SDS-PAGE and Western blot of cell extracts (dimer band kept under denaturing conditions); M. mazei cell extracts (750 µg), cells grown under standard conditions (38.5 mM NaCl) or with 500 mM NaCl; samples boiled 5 min at 95 °C, 12% SDS-PAGE; polyclonal antibodies against MM_0565

For “AGGGCAAAAATTTCCGTTATTTGGCCAGAAAAGGCCTGAAATGAGCCCTTTTTCAGGGCTAAAATTCTTGCTGGAAAATTATCAAACCCTTTATAAATACAAGAAAAACTTCTCATACGCAGATATTCCGGTAACAGCAATCTACGCATTTTCT (double strand) [leader I-B PCR fragment]”, the binding [1] was “binds” and the binding [2] was “binds”.

With “AGGGCAAAAATTTCCGTTATTTGGTCAGAAAAGGCCTGAAATGAGCCCTTTTTTGGGGCTAAAATTCTTGCTGGAAAATTATCAAACCCTTTATAAATACAAGAAAAAAAGGGTTTTTTTAGTGGTTTGGAAAC (double strand) [leader III-C PCR fragment]” the binding [2] was “binds”.

B1: conserved leader region 1 (5' fragment, 70 nt) (dsDNA)
DNA 1: TTTTTCTTGTATTTATAAAGGGTTTGATAATTTTCCAGCAAGAATTTTAGCCCCAAAAAAGGGCTCATTT
DNA 2: AAATGAGCCCTTTTTTGGGGCTAAAATTCTTGCTGGAAAATTATCAAACCCTTTATAAATACAAGAAAAA
B1 showed a Kd ([3]; blunt) of 960 ± 350 nM.

B2: cas8b promoter (CRISPR-Cas I-B operon) (dsDNA)
DNA 1: TCTATTTGCTTATTTTTATAATTATTTTTAGAAATGTATATATAATATGTTAACTATGAACCTTGATGGT
DNA 2: ACCATCAAGGTTCATAGTTAACATATTATATATACATTTCTAAAAATAATTATAAAAATAAGCAAATAGA
B2: no binding ([3]; blunt).

B3: MM_0565 promoter version 1 (wt) (dsDNA)
DNA 1: AACTAAATCCCTATATCGTAAAACATTTAACCAAACCCTACAATACATGACATCTAATGT
DNA 2: ACATTAGATGTCATGTATTGTAGGGTTTGGTTAAATGTTTTACGATATAGGGATTTAGTT
For B3, the Kd ([3]; blunt) was 285 ± 56 nM.

B4: MM_3250 (cas1-solo operon) promoter (dsDNA)
DNA 1: CCGCTCTTACTTATGTACAGAATTGAGTATAACTTTAAGTATAAGTTTGATGTATATTTTGTATATAATT
DNA 2: AATTATATACAAAATATACATCAAACTTATACTTAAAGTTATACTCAATTCTGTACATAAGTAAGAGCGG
B4 was tested, and the Kd ([3]; blunt) was 1600 ± 400 nM.

B5: His6-MM_0565 (CARF protein MM_0565 of Methanosarcina mazei Gö1 with N-terminal His6 tag) (natural protein, UniProt Q8PZC9 1-200, looked up)
chain: T1 sequence
notes: MM_0565 gene product of Methanosarcina mazei Gö1; N-terminal CARF domain and C-terminal winged helix-turn-helix domain; gene PCR-amplified (0.6 kbp fragment) and cloned into pET28a(+); approximately 22 kDa; Homodimer by size-exclusion chromatography; also called purified MM_0565; His6-tagged MM_0565; source: E. coli BL21-CodonPlus-RIL (plasmid pRS923, pET28a), purified (Ni-NTA agarose); not …
B5 was tested, and the “stoichiometry N” value [4] was 2.

B6: MM_0565, endogenous in Methanosarcina mazei Gö1 (natural protein, UniProt Q8PZC9 1-200, looked up)
chain: T1 sequence
notes: MM_0565 gene product of Methanosarcina mazei Gö1, detected in cell extracts with polyclonal antibodies against MM_0565 as bands of 25 and 50 kDa; Both a monomer band and a dimer band were seen on the denaturing gel; also called dimeric MM_0565; source: endogenous, M. mazei Gö1 cell extracts
B6 was tested, and the “stoichiometry N” value [5] was 2.

B7: conserved leader region 2 (3' fragment) (dsDNA)
DNA 1: CAAGAATTTTAGCCCTGAAAAAGGGCTCATTTCAGGCCTTTTCTGGCCAAATAACGGAAATTTTTGCCCT
DNA 2: AGGGCAAAAATTTCCGTTATTTGGCCAGAAAAGGCCTGAAATGAGCCCTTTTTCAGGGCTAAAATTCTTG
B7: no binding [3].
